Values quoted from earlier work in paper PMC5860782.

Molecular target: clathrin light chain (Saccharomyces cerevisiae) (UniProt P17891)
Sequence of UniProt P17891 (P17891 whole entry): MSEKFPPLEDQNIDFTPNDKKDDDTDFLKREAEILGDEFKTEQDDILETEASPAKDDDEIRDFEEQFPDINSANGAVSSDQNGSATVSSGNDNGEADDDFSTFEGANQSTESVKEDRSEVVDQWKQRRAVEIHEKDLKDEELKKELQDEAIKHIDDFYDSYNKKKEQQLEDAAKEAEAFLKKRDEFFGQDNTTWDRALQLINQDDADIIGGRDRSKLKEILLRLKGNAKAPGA

Kd: 1 nM
Substance: clathrin heavy chain (from UniProt P22137)
